{"source": "the DeepSol protein solubility set", "data": [{"test": "soluble on expression in E. coli; label from the status in PepcDB or PDB records", "values": [{"sequence": "MIRIELPTLIAKLNAQSKLALEQAASLCIERQHPEVTLEYYLDVLLDNPLSDVRLVLKQAGLEVDQVKQAIASTYSREQVLDTYPAFSPLLVELLQEAWLLSSTELEQAELRSGAIFLAALTRADRYLSFKLISLFEGINRENLKKHFAMILSDSAETAVAKTDKNAANPLQAAAETPLGRFCTNVTEQARNGELDPVLSRENELNLMVDILCRRRKNNPIVVGEAGVGKSAMIEGLALRVVAGKVPTQLQNVELYSLDLGRLQAGASVKGEFEKRLKGVIDAIKQSPKPIILFIDEAHTLIGSGNQEGGSDAANLLKPALARGELSTVAATTWKEYKKYFEKDPALTRRFQLVKLDEPTIDQAVDILRGLNSVYEKAHNVLITDDALKAAAELSARYISGRQLPDKAIDVLDTACARIAINMTTPPKRLALLETLCHQRQLEIDMLERAQFLGQEVDSERLDVLRNQELADEAEKAALTQSWQQQKSLVESIIALRAELMELSQAQEQDPDHLLVVRTALQEQYQALDAIDHAERLMHPQVDADQIAEVIADWTGVPVDQMNTDELHKITHLTSILGQAIKGQETAIERIHRHLLTARADLRRPGRPKGAFLLVGPSGVGKTETVVQLAEQLYGGKQFLTTINMSEYQEKHTVSRLIGSPPGYVGYGEGGVLTEAIRKMPYSVVLLDEVEKAHPEVLNIFYQGFDKGEIADGEGRVIDCQNIVFFLTSNLGYQTIVDYADEPAKLDEALYPELAAFFKPALLARMEVIPYLPLGKEVLAQIVRGKLARLEKLFKTRYNAEVVIEESLIDEILSRATRSENGARMLEAIIEGQLLPPVSLALLNKLAERAPVERIRLAAEAGEFIGEVA", "soluble on expression in E. coli": "not soluble"}, {"sequence": "GSSHHHHHHSSGRENLYFQGHMARPGMERWRDRLALVTGASGGIGAAVARALVQQGLKVVGCARTVGNIEELAAECKSAGYPGTLIPYRCDLSNEEDILSMFSAIRSQHSGVDICINNAGLARPDTLLSGSTSGWKDMFNVNVLALSICTREAYQSMKERNVDDGHIININSMSGHRVLPLSVTHFYSATKYAVTALTEGLRQELREAQTHIRATCISPGVVETQFAFKLHDKDPEKAAATYEQMKCLKPEDVAEAVIYVLSTPAHIQIGDIQMRPTGS", "soluble on expression in E. coli": "soluble"}, {"sequence": "MTDIIIVHSKHGNSKNHWYEWLRHNLTLEGYDVSLFNLEANDHAQIDEWVNEMKQQLHIRKKDTYFVTHGFGSIAALKFLEETHHHIEGFFSIAGFKEDAQDIDEDVDLKGVTIDYDKIKEQVDKFYGLTSKDDQYVSYKETQRLMNSLNGHTRVVEDGGHFLEEEGFVTFTSLINRMQGYMTRLEHHHHHH", "soluble on expression in E. coli": "not soluble"}, {"sequence": "MGSDKIHHHHHHMGHYEHKTKEELLEIVCKLEKKVEGLSSELDSLKKGRFRERYSTRILDALPDMLTVFDHNANIVELASSPTTNHVEGTTSDSIINSNVKDIVPEEAYESVRHNMDKVIHTGKSSTAEHSLMLDGVLHHYENRIFPLDDQYLLCMCRDVSQETEMAKINETQRSEIVRLNSLMNDILNNIPVYLFVKDTGNDFRYLYWNKAFAEHSGISVQRAVGSTDADIFPDKKDAEHFREDDLKVMKLGRIEYLENYTTMSGEVRTVTTMKTVVPSGGQHPYIIGVSWDVTEIKKTEKELIAARIKAEEADRMKSSFLANMSHEIRTPLNAIVGFSKLIIEADNECEKRQYADIVEHNSTVLLNLFNDILDLSALEAGSLELSYHPVRLKDICLQLYELHVKSVKPEVRLVLDEVDSQLCIQGDWERISQVLVNLITNAIKFTSVGEIHFGFQKKADMVQFYMSDTGKGIPAERVATIFQRFGKIDDFVQGTGLGLTICRMLVEKMGGRIWVRSKQGEGTVFYFTLPMAK", "soluble on expression in E. coli": "not soluble"}, {"sequence": "MSISSIPSSPSISGSSTSSTAPNISFCYTWTTKLKTRKTADGEATILSISPKFATVHQLISFQWNIRIHATSEMNEEDEEVDYVAVDLYLVDGPVNEVNVMAEVGALEKTSTATLGSLPAGQKEAKTIKMQKGSGCEITDADRECVSKYLKENTRLFEPSTYLDAISPTPRASFLTANYNARVNSKVWKRRSRKRNGRIERRVLSDKEKTKYESKVQMILDEEREKLCDKREMLKEDDGGSRRASLISQFRENQHESVLDDHMFKRILVSCCESCEQRRLSFMCDSRTEDDSEGEDCEDNEEDDGEGGSDDEEDDGEEPHFECDKSDKEHVHDMLANLYFNKVVLPEMEYVEDFVDFLIDAELNDLPVLKRACERYLCSELNSKKDIGTCLLLDLLFNSIVFNLPVMKSMTLTELANRTHEFVDADTLLDQEEFKNLDKRMRTLADRNLVELIEQCVTFRDQKARVRVLPTAESFDISFDLTNQ", "soluble on expression in E. coli": "not soluble"}, {"sequence": "MPDGDFITLDRVEKVFDVRRKTGFLRSERRRVRAVDSLSFTVARGEMVGYIGPNGAGKSTTIKMLTGILTPSGGRLRVAGIDPSRERTRLAARIGVVFGQRTTLWWDLPLIDSYRLMHRMYRIPDGRYRENLDRCVELLELGDLLDVPVRQLSLGQRMRGDIAAALLHDPEVLYLDEPTIGLDVISKARVREFLRELNAERGTTVLLTTHDLQDIEQLCGRVMVIDHGRLMYDGPLAGLHEVGDSERTLVVDLARELPPIEAAPARVVKVEGPRQWLAFPASESAAPLVARIAAAYPLVDLSVREPDIEAVIAKMLQSMGDTPQPPPEQAEHVVSLEHHHHHH", "soluble on expression in E. coli": "soluble"}, {"sequence": "MSLVAFHEVRFPLRLALGVSGGPVRRTDIVNLSNGRENRNQRWRNARRAYDAGSGIRSVADLYEVLAFFEARRGEMYGFRFRDPVDFKSCPPGETPAATDQRIGTGDGVVTGFQLVKTYADAGGSFSRRIDKPVEGSVIVSVEGVKAAPTDLSVDHATGMVIFRAGRAPPTGAVIRAGFEFDVPVRFAIDRIDINVTAFEAGRIPSIPLMEILPEGHHHHHH", "soluble on expression in E. coli": "soluble"}, {"sequence": "MSLGQGIPANPADGAGEWGDYRDCDSPWKAVEDAVRAAARQHPDAAYVYYTGDIIDHGVWETTVAGNIVSMTRTYQLFRDVFGSKPVYNVLGNHENNPTNVFAPSYITQSEFSAKWLYDFSADQWSTWLPTASQQTIRQGGFYTVLVRPGFRIIGMNNNDAYTFNWWILYDPAYLQAQLQWVHDTLLQAEAAGEKVHILAHIPIGAGTSYRTWARQYRRILDRFWDVITAHFHGHTHADEFNVFYSLANPQHAISAGFNGGGTVPFSNYNPNYVVYYVNPQTYDVTDFESWYFSLTEANQNPNREGHHHHHH", "soluble on expression in E. coli": "not soluble"}, {"sequence": "MSLDVSVSATGHDNVTARHDSTLELTTDDFLTPAGDCILGIDADCSPAAFSDAFVAACQDAAATITLVLDTPQHRDEITGSGHPDLTFTNDRSMVGRTSTYVDDRTVFVDADKAAADVDREMVAALADGAPLTATLRVDEGHHHHHH", "soluble on expression in E. coli": "soluble"}, {"sequence": "MSQQEISIINLDQLVSMTSVEIAELTGKEHKHVLRDIRNMVEELNGAKTEHCSTLSSELNGSKFGLVGEEVYKDAKGESRTMYRLDRKHTFILVAGYSVHLRAKCYDHIQTLERRVLQLEDQKKRAAIQSANRRGVTWGDYCKTYGLPAQKLMTALLQHRGLFRKNPISNEWSVNPKYSDCFRIIKPSDQKFSAGGYNFRFNAKGLEVFGKPEMVDKMRGILIAFTGTDQQKQEHLLKLAQSGKVEGI", "soluble on expression in E. coli": "not soluble"}, {"sequence": "MRKVETTKAPQAIGPYSQGIIVNNMFYSSGQIPLTPEGELVKGDIQAQTHQVFQNLKAVLEAAGASLDTVVKTTVFLKNMDDFAAMNEVYSQYFPNHKPARSCVEVARLPKDVLVEIEVVALVP", "soluble on expression in E. coli": "soluble"}, {"sequence": "SLQVDASGHQILLNYRKERSLQEFVPQVSLTEVLTGKINANTVKNKIVLIGTTAESFEDYSFTPNITNQGAIRKYQVLSLQAQMISQLLSAALDGRSLIWAWSVWQETIWIWGWSLTGSLLAWYIR", "soluble on expression in E. coli": "not soluble"}, {"sequence": "MVHYKVSYFPIRGAGEIARQILAYAGQDFEDNRIPKEEWPAVKPSTPFGQLPLLEVDGKVLAQSHAIARYLARQFGINGKCAWEEAQVNSVADQFKDYLNEVRPYFMVKMGFAEGDLDALAKDVFLPGFKKHYGFFANFLKSAGSGYLVGDSLTFVDLLVAQHTADLLAANAALLDEFPQFKAHQEKVHSNANIKKWLETRPVTPF", "soluble on expression in E. coli": "not soluble"}, {"sequence": "MDFYYLPGSAPCRAVQMTAAAVGVELNLKLTDLMKGEHMKPEFLKLNPQHCIPTLVDNGFALWESRAIQIYLAEKYGKDDKLYPKDPQKRAVVNQRLYFDMGTLYQRFADYHYPQIFAKQPANPENEKKMKDAVGFLNTFLEGQEYAAGNDLTIADLSLAATIATYEVAGFDFAPYPNVAAWFARCKANAPGYALNQAGADEFKAKFLS", "soluble on expression in E. coli": "soluble"}, {"sequence": "MTTDQSKLEAINQALRAQRQLVRQLDDQQASLERQLQGLTGDSAGWAADTDPALGHVLEAFHALLGSLTESLSQGDAAQLLARCAAELLPDTTGAIFVDQAGVEPANRAIAAWRGAELLTDPNALHYECTEDQAAHRLNIEAQGLYLGVVELRPLSPGRALRAREQQTLQMLASAAGLALATHTLRYRLRHRNVRDPLTGLFNRRYAEDTLERELHRAQRHQLPLSVVLIDLDRFEAYNQRHGQNAGDRMLQAMSDLLQHSFRGSDICARAAGQRFLLVLPEAAIRDAIERANDLRRELAKVRVHLRGLHLPAMTVSMGVAGYPEHADSSDDLMAAADAALQLAKHSGGNTCALAEKVPLSPHNE", "soluble on expression in E. coli": "soluble"}, {"sequence": "MGSDKIHHHHHHMNTGASAGVCDAFDRGRFRNAIEVFSSRMPAEIRTARASDVDDLAAIEKAVFSSDRISRRSFRLFIERETAETLVAEVDGRVAGYAIVLFRKGSGVARLYSIAVGPFFGALGIGRQLLTAAEEAAFEHDRMMLRLEVREDNSRAIRIYEQAGYRKIGREPGYYEDGATALRYEKTLRGDLPVATRVPFYQQTCEFTCGPCCLMMAMANFDRGFVPDPVMEIRLWREATTVFMMSGPGGCEPFGLAVSGYESGLAAEIFVSFYGALFLQSVRSEDKRRVMELAQVDFRRRAELYGIPVNCRPFTLDDIRTAIAAGKLVLVLISGFLMFGKKVPHWVLAIGDDGDHILIHDPWVEDERQETILDAANIPVPYGIFMNMAQFGRDGLRAAITLGKRDTQ", "soluble on expression in E. coli": "not soluble"}, {"sequence": "GMADIDQASKTEMEAAAFRHLLRHLDEHKDVQNIDLMIQADFCRNCLAKWLMEAATEQGVELDYDGAREYVYGMPFAEWKTLYQKPASEAQLAAFEAKQAARKR", "soluble on expression in E. coli": "soluble"}, {"sequence": "IAPTVWKLADRSKIYMADLESALHYILRIEVGRFPVLEGQRLVALKKFVAVLAKYFPGRPLVQNFLHSVNEWLKRQKRNKIPYSFFKTALDDRKEGAVLAKKVNWIGCQGSEPHFRGFPCSLWVLFHFLTVQAARQNVDHSQEAAKAKEVLPAIRGYVHYFFGCRDCASHFEQMAAASMHRVGSPNAAVLWLWSSHNRVNARLAGAPSEDPQFPKVQWPPRELCSACHNERLDVPVWDVEATLNFLKAHFSPSNIILDFPA", "soluble on expression in E. coli": "soluble"}, {"sequence": "MGNNQPGGMYKRDRPYDSEKSGSHSRSRGGIPSSSPSNEDECPVQMKIAKGDDKSKFPVVFKWNINNATPRQVYICGSWDGWNTKIPLVKSTSDFSTIVDLEPGKHEYKFMVDSKWVVDDNQQKTGNNLGGENNVVMIDEADFEVFDALDKDLASSNAGEALRNSHPTKESHDTPNDRELEKLHQFGQETPTRVDFNKAAAPPVLPPHLLQVILNKDTPVQCDPNVLPEPDHVMLNHLYALSIKDGVMVLSATHRYRKKFVTTLLYKPI", "soluble on expression in E. coli": "soluble"}, {"sequence": "MDERFISFVCLLFTMEFQKYRTMHFPRDVYIGHDVLNRVLDVVDQNSRTRDVIIVTGNTTYELAGKKIVEILASSPYEVHLSFAGEANYENLKKIEEETNDVNAGIIIGVGGGTKIDLAKKLAYDKNLPFISIPTSPSHDGIASPRASLRRNGISYSEEGAMPIGVIADTSVMIKAPYRYLAAGAADVISNISAVKDWKLAHRLRGEEFSSSAAAMSEYSAQEVISQVGEIRKYDESSVWLVTKNILASGTAMAIAGNSRPGSGSEHLFAHALEAAGVNNMLHGEMCAMGTIVSLYLHDDNWQKIRDVFESLGVSVKARDYGLKEEVVIEALRRAHAIRPERYTILGESDMSYDAAVKALELTGII", "soluble on expression in E. coli": "not soluble"}]}]}
